Assay results published in publication PMC2323325, “Conserved Regulation of MAP Kinase Expression by PUF RNA-Binding Proteins”.

Tests used:
FBF-2 = molecular target: T1, FBF-2 (Caenorhabditis elegans, UniProt Q09312 162-566); test: EMSA; Not stated; gel shift assays performed as described in ref 49; conditions: protein: recombinant
T1 sequence: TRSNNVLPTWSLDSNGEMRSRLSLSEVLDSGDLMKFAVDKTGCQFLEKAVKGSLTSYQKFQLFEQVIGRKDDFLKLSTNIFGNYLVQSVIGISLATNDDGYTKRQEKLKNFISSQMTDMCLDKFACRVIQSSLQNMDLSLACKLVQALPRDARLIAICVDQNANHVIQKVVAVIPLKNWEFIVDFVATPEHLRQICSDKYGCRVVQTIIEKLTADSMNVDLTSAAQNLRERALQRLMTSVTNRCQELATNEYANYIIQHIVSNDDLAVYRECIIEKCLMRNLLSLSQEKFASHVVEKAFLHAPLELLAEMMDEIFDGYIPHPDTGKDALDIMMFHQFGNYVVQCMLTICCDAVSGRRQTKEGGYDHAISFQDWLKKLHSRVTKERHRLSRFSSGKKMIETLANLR

PUM2 = PUM2 (Homo sapiens, UniProt Q8TB72 706-1048); test: as above; conditions: protein: recombinant
Chain of PUM2 (Q8TB72 706-1048): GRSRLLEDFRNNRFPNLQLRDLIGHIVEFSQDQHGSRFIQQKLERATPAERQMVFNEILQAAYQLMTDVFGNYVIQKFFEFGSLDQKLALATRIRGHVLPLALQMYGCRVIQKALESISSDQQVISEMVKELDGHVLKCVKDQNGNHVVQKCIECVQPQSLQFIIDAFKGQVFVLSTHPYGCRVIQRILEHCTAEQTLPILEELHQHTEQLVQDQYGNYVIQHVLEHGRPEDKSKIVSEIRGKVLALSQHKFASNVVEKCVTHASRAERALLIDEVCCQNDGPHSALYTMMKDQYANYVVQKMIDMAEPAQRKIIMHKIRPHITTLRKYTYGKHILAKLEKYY

With AGUUUCUUUUUCGAUGUAUCAUAAUCCA (ssRNA) [mpk-1 FBEa] the Kd (FBF-2) was ~93 nM.

UAUUUUACGUAUUUUGUAAUAUAUUCAU (ssRNA) [mpk-1 FBEb] gave a Kd (FBF-2) of ~320 nM.

AGUUUCUUUUUCGAACAAUCAUAAUCCA (ssRNA) [mpk-1 FBEa*]: no binding (FBF-2).

UAUUUUACGUAUUUACAAAUAUAUUCAU (ssRNA) [mpk-1 FBEb*]: no binding (FBF-2).

UUCAUGAAAAUAAAUGUACAUCUUCUAU (ssRNA) [Erk2 NRE]: binds (PUM2).

AGUAUAUUUGAAACUGUAAAUAUGUUUG (ssRNA) [p38alpha NREa]: binds (PUM2).

AGGAGAGAAGAAAGUGUAGAUAGUUAAA (ssRNA) [p38alpha NREb]: binds (PUM2).
